# Key:
# [1] = target: glucose 6-phosphate dehydrogenase from Leuconostoc mesenteroides, guanidine-denatured (Leuconostoc mesenteroides) (UniProt P11411)
# [2] = target: tobacco Trx f C19/71S double mutant, His-tagged (Nicotiana tabacum); assay: non-reducing SDS-PAGE with Western blot
# [3] = target: tobacco Trx f C71S mutant, His-tagged (Nicotiana tabacum); assay: non-reducing SDS-PAGE with Western blot
# UniProt P11411, sequence (P11411 whole entry): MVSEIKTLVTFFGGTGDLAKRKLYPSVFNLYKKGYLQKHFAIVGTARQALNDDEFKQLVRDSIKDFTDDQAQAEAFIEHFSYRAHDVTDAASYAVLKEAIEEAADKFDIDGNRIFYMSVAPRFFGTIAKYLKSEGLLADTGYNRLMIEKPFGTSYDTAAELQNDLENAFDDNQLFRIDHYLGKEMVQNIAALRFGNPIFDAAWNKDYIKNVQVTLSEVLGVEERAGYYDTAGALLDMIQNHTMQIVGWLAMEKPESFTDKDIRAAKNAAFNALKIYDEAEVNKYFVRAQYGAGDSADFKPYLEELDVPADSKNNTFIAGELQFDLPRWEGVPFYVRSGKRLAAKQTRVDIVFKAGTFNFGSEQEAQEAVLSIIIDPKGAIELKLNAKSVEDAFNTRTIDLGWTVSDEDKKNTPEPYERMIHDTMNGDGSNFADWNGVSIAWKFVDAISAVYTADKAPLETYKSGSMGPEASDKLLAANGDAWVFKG
substance,measurement,setting,value
"tobacco Trx f C19/71S double mutant, His-tagged (enzyme)",chaperone foldase activity (G6PDH reactivation) relative to wild-type Trx f,[1],80 % decrease
same,stoichiometry N,[2],2
"tobacco Trx f C71S mutant, His-tagged (enzyme)",chaperone foldase activity (G6PDH reactivation) relative to wild-type Trx f,[1],80 % decrease
same,stoichiometry N,[3],2
